From the RNAGym collection of RNA variant scans (doi:10.7554/elife.80360) come the findings set out here.

B1: Twister Ribozyme (parent)
chain: AACACUGCCAAUGCCGGUCCCAAGCCCGGAUAAAAGUGGAGGGGGCGG

The variants in the series derive from B1. Description: self-cleavage, relative activity (ratio to wild type); higher = more cleavage; co-transcriptional.
For AACACUGCCAAUGCCGGUCCCAAGCCCGGAUAAAAGUGGAGGUGUCGG, the self-cleavage was 0.358.
For the variant AACACUGCCAAUGCCGGUCCCAAGCCCGGAUAAAAGUGUAGGGGGUGG, the self-cleavage worked out at 0.23.
In the case of ACCACUGCCAAUGCCGGUCCCAAGCCCGGAUAAAAGUGGAGGGGGCGU, the self-cleavage is 0.0976.
For AACACUGCCAAUGCCGGUCCCAAGCCCGGAUAAAAGUGUCGGGGGCGG the value was 0.134.
AACACUGCCAAUGCCGGUCCCAACCCCGGAUAAAAGUGGAGGGCGCGG: the self-cleavage amounted to 0.0955.
For AACACUGCCAAUGCCGGUCCCAAGCGCGGAUAAAAGCGGAGGGGGCGG the value was 0.0957; for AACACUGCCGAUGCCGGUCCGAAGCCCGGAUAAAAGUGGAGGGGGCGG, 0.0634.
Then AACACUGCCCAUGCCGGUCCCAAGUCCGGAUAAAAGUGGAGGGGGCGG, with 0.782.
On to AACACUGCCAAUGCCGGCCCCAAGCCCGGAUAAAGGUGGAGGGGGCGG, for which the self-cleavage was determined as 0.139.
Then AACAAUGCCAAUGCCGGUCCCACGCCCGGAUAAAAGUGGAGGGGGCGG, with 0.0937; and AACACUGCCAAUGCCGGUCCCAAGCCCGGCGAAAAGUGGAGGGGGCGG, with 0.839; and AACACAGCCAAUGCCGGUCCCAAGCCCGGAUAAUAGUGGAGGGGGCGG, with 1.04.
Then AACACUGCCAAUGCCGUGCCCAAGCCCGGAUAAAAGUGGAGGGGGCGG, with 0.106.
Then AACACUGCCAAUGCCGGUCCCAUGCCCGGAUAAAAGUGGAGGGAGCGG, with 0.679; and AACACUCCCAAUCCCGGUCCCAAGCCCGGAUAAAAGUGGAGGGGGCGG, with 0.0439; and AACACUGCCAAUGCCGGUCCCAAGCCCGGUUAGAAGUGGAGGGGGCGG, with 1.03.
On to AACACUGCCAAUGCCGGUCCUAAGCCCGGAUAAAAGUGGAGCGGGCGG, for which the self-cleavage was determined as 0.118.
Take AACACUGCCAAUGCCGGUGCCAAGCCCGGAUAAAUGUGGAGGGGGCGG: the self-cleavage was 0.34.
AACACUGCCAAUUCCAGUCCCAAGCCCGGAUAAAAGUGGAGGGGGCGG: the self-cleavage turned out to be 0.302.
In the case of AACACUGCUAAUGCCGGUCCCAAGCCCGGAUAAAAGUGUAGGGGGCGG, the self-cleavage was found to be 0.115.
For AACACUGCCAAUGCCGGUCCCAAGCCCGGAUAACAGUGGAGGGGGCGC the value was 0.2; for AUCACUGCCAAUGCCGGUCCCAAGCCCGGAUAAAAGUGGAGGGGGCUG, 0.23.
Then AACACUGCCAAUGCCGGUCCCAAGCGCGGUUAAAAGUGGAGGGGGCGG, with 0.295.
Turning to AACACUGCCCAUGCCGGUCCCAAGCCCGGCUAAAAGUGGAGGGGGCGG, the self-cleavage worked out at 0.884.
As to AACACUGCCGAUGCCGGUCCCAAGCCCGGAUGAAAGUGGAGGGGGCGG, the self-cleavage was 1.15.
Then AACACUGCCACUGCCGGUCCCAAGCCCCGAUAAAAGUGGAGGGGGCGG, with 0.431; and AACACUGCCAAUUCCGGUCCCAAGCCCGGAUCAAAGUGGAGGGGGCGG, with 0.595.
Then AACACUGCCAAUGCCGGUCCCAAGCCCGCAUAAAAGUGGCGGGGGCGG, with 0.153; and AACACUGCCAAUGCGGGGCCCAAGCCCGGAUAAAAGUGGAGGGGGCGG, with 0.0953; and AACACUGCCAAUGUCGGUCCCAAGCCCGGAUAAAAGUCGAGGGGGCGG, with 0.909.
Take AACACUGCCAAUGCCGGUCCGAAGCCCGAAUAAAAGUGGAGGGGGCGG: the self-cleavage was determined as 0.0338.
Turning to AACACUGCCAAUGCCGGUCCCAAGUCCGGAUAAUAGUGGAGGGGGCGG, the self-cleavage turned out to be 0.633.
Regarding AACACUACCAAUGCCGGUCCAAAGCCCGGAUAAAAGUGGAGGGGGCGG, the self-cleavage stood at 0.059.
For AACACUGCCAAAGCCGGUCCCAAACCCGGAUAAAAGUGGAGGGGGCGG the value was 0.103; for AACACUGUCCAUGCCGGUCCCAAGCCCGGAUAAAAGUGGAGGGGGCGG, 0.755; for AACACUGCCGAUGCCGGUCCCAAGCCCGGAUAAAAGUGGAGGGUGCGG, 1.04.
As to AACACUGCCACUGCCGGUCCCAAGCCCGGAUAUAAGUGGAGGGGGCGG, the self-cleavage was 0.853.
AACACUGCCAAUGCCGGUCCCAAGACCGGAUAAAAGAGGAGGGGGCGG: the self-cleavage was determined as 0.106.
As to ACCACUGCCAAUGCCGGUCCCAAGCCCGGAUAAAAGUGCAGGGGGCGG, the self-cleavage was found to be 0.105.
Take AACACUGCCAAUGCCGGUCCCAAGCCCGAACAAAAGUGGAGGGGGCGG: the self-cleavage is 0.986.
Then AACACUGCCAAUGGCGGUCCCAAGCCCGGAUAAAAGUGGAGGGGGCAG, with 0.0923; and AACACUGCCAACGCCGGUCCCAAGCCCGGAUAAAAGUGUAGGGGGCGG, with 0.222.
Turning to AACACCGCCAAUGCCGGGCCCAAGCCCGGAUAAAAGUGGAGGGGGCGG, the self-cleavage was 0.0358.
In the case of AACACUGUCAAUGCCGGUCCCAAGCCCGGAUAAAAGUGCAGGGGGCGG, the self-cleavage amounted to 0.147.
On to AACACUGCCAAUGCCGGUCCCAAGCCCGGAUAGAAGUGAAGGGGGCGG, for which the self-cleavage stood at 0.362.
For AACACUUCCAAUGCCGGUCCCAAGCCCGGAUAAAAGUGGAGGAGGCGG the value was 0.0755.
Take AACACUGCCAAUGCCGGUCCCAAGCCCCGAUAAAAUUGGAGGGGGCGG: the self-cleavage stood at 0.101.
Then AACACUGCCAUUGCCGGUCGCAAGCCCGGAUAAAAGUGGAGGGGGCGG, with 0.17.
In the case of AACACUGCCAAUGCCGGUCCCAAGCCCGGAUACAAGUGGAGGGGACGG, the self-cleavage was 0.795.
As to AACACUGCCAAUGCCGGUCCCAAGCCCGGAUAAAAGUGGAUGUGGCGG, the self-cleavage stood at 0.147.
Regarding AACACUGCCUAUGCCCGUCCCAAGCCCGGAUAAAAGUGGAGGGGGCGG, the self-cleavage turned out to be 0.419.
For AACACUUCCAAGGCCGGUCCCAAGCCCGGAUAAAAGUGGAGGGGGCGG the value was 0.208; for AACACUGCCAAUGCCGGUCCCAAGCCCCGAUAAAAGUGUAGGGGGCGG, 0.173; for AACACUGCCAAUGCCGAUCCCAAGCCCGGAUAGAAGUGGAGGGGGCGG, 0.451.
For AACCCUGCCAAUGCCGGUCCCGAGCCCGGAUAAAAGUGGAGGGGGCGG the value was 0.0686.
Then AACACUGACAAUGCCGGUCCCAAGCCCUGAUAAAAGUGGAGGGGGCGG, with 0.22; and AACACUGCCAAUGCCGGUCCCAAGGCCGGAUAAAAGUGGAGGGGGGGG, with 0.223; and AACACUGCCAAUGCCGGUCCCAAGCCCGGAUAUAUGUGGAGGGGGCGG, with 0.926.
Take AAGACUGCCAAUGCCGGUCCCAAGCCCCGAUAAAAGUGGAGGGGGCGG: the self-cleavage worked out at 0.167.
Turning to AACACUGCCAAUGCCGGUCCUAAGCCCGGAUAAAAGUGGAGGGGGAGG, the self-cleavage amounted to 0.107.
For AACACUGCCAAUGCCAGUCCCAACCCCGGAUAAAAGUGGAGGGGGCGG the value was 0.0993; for AAUACUGCCAAUGCCGGUCCCAAGCCCGGAUAAAAGUGGAGAGGGCGG, 0.0772; for AAGACUGCCAAUGCCGGUCCCAAGCCCGGAUAACAGUGGAGGGGGCGG, 0.0918.
In the case of AACACUGCAAAUACCGGUCCCAAGCCCGGAUAAAAGUGGAGGGGGCGG, the self-cleavage came out at 1.09.
Then AACACUGCCAAUGCCGGUCCCAAGGCCGGUUAAAAGUGGAGGGGGCGG, with 0.31.
Then AACACUGCCAAUGCCGGUCCCAAGGCCGGAUAUAAGUGGAGGGGGCGG, with 0.246; and AAUACUGCCAAUACCGGUCCCAAGCCCGGAUAAAAGUGGAGGGGGCGG, with 0.402.
For AACACUUCCAAUCCCGGUCCCAAGCCCGGAUAAAAGUGGAGGGGGCGG the value was 0.0504; for AACACUGCCAAUGCCGGUCCAAAGCCCGGAUACAAGUGGAGGGGGCGG, 0.112.
For the variant AACACUGCCAAUGCCGGUACCAAGCCCGGAUGAAAGUGGAGGGGGCGG, the self-cleavage was 0.177.
For AACACUGCCAAUGCCGGUCCCAAGCCCGGAUAAAUAUGGAGGGGGCGG the value was 0.593.
In the case of AACACUGCAAAUGCCGGUCCCAAUCCCGGAUAAAAGUGGAGGGGGCGG, the self-cleavage worked out at 0.111.
As to AACACUGCCAAUGCCGGUCCCAACCCCGGAUAUAAGUGGAGGGGGCGG, the self-cleavage turned out to be 0.0768.
Then AACACUGCCAAGGCCGGUGCCAAGCCCGGAUAAAAGUGGAGGGGGCGG, with 0.686.
On to AACACUGCCAAUGCCGGUCCCAAGCCCGGAUAUAAGUGGAGGGGGCGC, for which the self-cleavage came to 1.08.
For AACACUUCCAAUGCCGGUCCCAACCCCGGAUAAAAGUGGAGGGGGCGG the value was 0.0734; for AUCACUGCCAAUGCCGGUCCCAAGCCCGGAUAGAAGUGGAGGGGGCGG, 0.503; for AACACUGCCACUGCCGGUCCCAAGACCGGAUAAAAGUGGAGGGGGCGG, 0.0918.
Turning to AUCACUGCCAAUGCCGGUCCCAAGCGCGGAUAAAAGUGGAGGGGGCGG, the self-cleavage was 0.128.
For AACACUGCCAAUGCCGGUCCCAAGACAGGAUAAAAGUGGAGGGGGCGG the value was 0.0772; for AACACUGCCAAUGCCGGUCUCAAGCCCGGAUAAAAGUGGAGGGGGAGG, 0.784; for AACACUGCAAAUGCCGGUCCCAAGCCUGGAUAAAAGUGGAGGGGGCGG, 0.304.
Consider AACACUACCAAUGCCGGUCCCAAGCCCGGAUAAAUGUGGAGGGGGCGG, for which the self-cleavage was found to be 0.546.
Take AACAUUGCCAAUGCCGGUCCCACGCCCGGAUAAAAGUGGAGGGGGCGG: the self-cleavage was 0.116.
Turning to GACACUGCCAAUGCCGGUCCCAAGCCCGGAUAAAAUUGGAGGGGGCGG, the self-cleavage stood at 0.204.
For AACACUGCCAAUGCCGGUCCCAAGCACGGAUAAAAGUGGAUGGGGCGG the value was 0.154; for AACACUGCCAAUGCCGGUCCCAUGCACGGAUAAAAGUGGAGGGGGCGG, 0.234.
For AACACUGCCAAUUCCGGUCCCAAGCCCGGAUAAAAGUGGAGGGCGCGG the value was 0.488.
For AACACUGCCAAUGCCGGUCCCAAGCCCGGAUAUAAGUGGCGGGGGCGG the value was 0.234.
As for AACACUGCCAAUGCCGGCCCCAAGCCCGGUUAAAAGUGGAGGGGGCGG, the self-cleavage turned out to be 0.512.
For the variant AACACUGCUAAUGCCGGUCCCAAGCCCGGAUACAAGUGGAGGGGGCGG, the self-cleavage came to 0.601.
Turning to AACACUGCUAAUGCCGGUCCCAAGCCCGGAUAGAAGUGGAGGGGGCGG, the self-cleavage was 0.548.
Then AACACUGCCAAUGCCGGUCCCAAGGGCGGAUAAAAGUGGAGGGGGCGG, with 0.0826.
Then AACACUGCCAAUGAAGGUCCCAAGCCCGGAUAAAAGUGGAGGGGGCGG, with 0.885; and AACACUGCCAAUGAGGGUCCCAAGCCCGGAUAAAAGUGGAGGGGGCGG, with 0.31; and AACACUGCCAAUGCCGGUCCCAAGCCCCGAUAAAAGUGGAGGGGGCGC, with 0.83.
Then AACACUGCCAAUGCCGGUCCCAAGCACGGAUAAAUGUGGAGGGGGCGG, with 0.732; and AACACUGCCAGUGCCGGUCCCAAGCCCGGAUAAAAGUGGAGGGGGCCG, with 0.528.
On to AACACUGCCACUGCCGGUUCCAAGCCCGGAUAAAAGUGGAGGGGGCGG, for which the self-cleavage is 0.627.
Then AACACUGCCAAUGCCGUUACCAAGCCCGGAUAAAAGUGGAGGGGGCGG, with 0.0777; and AACACUGCCAAUGCCGGUGCCAAGCCCGGAUAAAAGUUGAGGGGGCGG, with 0.0929; and AACACUGCCAAUGCCGGUCCCAAGCCCUGAUAAAAGUGGAGGGGACGG, with 0.637.
Take AACACUGCCAAUGCCGGUCCCAAGCCCGGGUAAAAGUGGAGGGGGCCG: the self-cleavage is 0.534.
Then AACACUGCCAAUGCCCGACCCAAGCCCGGAUAAAAGUGGAGGGGGCGG, with 0.336; and AACACUGCCACUGCCGGUCCCGAGCCCGGAUAAAAGUGGAGGGGGCGG, with 0.168.
Then AACACUGCCAAUGCUGGUCCCAAGCCCGGAUAAAUGUGGAGGGGGCGG, with 0.915; and AACACUGCCAAUGCCGGUCACAAGCCCGGAUAAAAGUGGAAGGGGCGG, with 0.0878.
AUCACUGCCAAUGCCGGUCCCAAGCCCGGAUAAAAGUGGCGGGGGCGG: the self-cleavage was 0.155.
